Test results reported in US20250161472A1 (BIOATLA, published 2025).
Substitutions are numbered along the chain they refer to. Read-outs that look alike come from different tables or passages of the source.

B1: LC-G049C (antibody, V domains shown)
VH: EVQLQQSGPELVKPGASVKISCKTSGYTFTEYTMHWMKQSHRKSLEWIGGINTNNGGTGYNQKFKGKATLTVDKSSSTAYMELRSLTSEDSAVYFCARGSLYSYGNSYFDYWGQGTLVTVSS
VL: QIVLTQSPAIMSASPGEKVTITCSATSSVSYMHWFQQKPGTSPKLWIYCTSNLASGVPARFSGSGSGTSYSLTISRMEAEDAATYYCQQRSSYPFTFGQGTKVEIK
notes: CPE single point mutant of parent VL 48.6-LC-WT
B2: HC-A097I (antibody, V domains shown)
VH: B1 VH with A97I
VL: B1 VL with C49G
notes: CPE single point mutant of parent VH 48.6-HC-WT
B3: HC-N052L (antibody, V domains shown)
VH: B1 VH with N52L
VL: B1 VL with C49G
notes: as for B2
B4: HC-M034E (antibody, V domains shown)
VH: B1 VH with M34E
VL: B1 VL with C49G
notes: as for B2
B5: HC-L101F (antibody, V domains shown)
VH: B1 VH with L101F
VL: B1 VL with C49G
notes: as for B2
B6: LC-G049H (antibody, V domains shown)
VH: B1 VH
VL: B1 VL with C49H
notes: as for B1
B7: HC-M034Y (antibody, V domains shown)
VH: B1 VH with M34Y
VL: B1 VL with C49G
notes: as for B2
B8: HC-R098Q (antibody, V domains shown)
VH: B1 VH with R98Q
VL: B1 VL with C49G
notes: as for B2
B9: HC-N052C (antibody, V domains shown)
VH: B1 VH with N52C
VL: B1 VL with C49G
notes: as for B2
B10: LC-G049P (antibody, V domains shown)
VH: B1 VH
VL: B1 VL with C49P
notes: as for B1
B11: HC-N052V (antibody, V domains shown)
VH: B1 VH with N52V
VL: B1 VL with C49G
notes: as for B2
B12: LC-F097E (antibody, V domains shown)
VH: B1 VH
VL: B1 VL with C49G, F97E
notes: as for B1
B13: HC-M034D (antibody, V domains shown)
VH: B1 VH with M34D
VL: B1 VL with C49G
notes: as for B2
B14: LC-H033G (antibody, V domains shown)
VH: B1 VH
VL: B1 VL with H33G, C49G
notes: as for B1
B15: HC-Y032D (antibody, V domains shown)
VH: B1 VH with Y32D
VL: B1 VL with C49G
notes: as for B2
B16: LC-H033L (antibody, V domains shown)
VH: B1 VH
VL: B1 VL with H33L, C49G
notes: as for B1
B17: HC-F029E (antibody, V domains shown)
VH: B1 VH with F29E
VL: B1 VL with C49G
notes: as for B2
B18: HC-S103G (antibody, V domains shown)
VH: B1 VH with S103G
VL: B1 VL with C49G
notes: as for B2
B19: LC-R090H (antibody, V domains shown)
VH: B1 VH
VL: B1 VL with C49G, R90H
notes: as for B1
B20: HC-D110L (antibody, V domains shown)
VH: B1 VH with D110L
VL: B1 VL with C49G
notes: as for B2
B21: HC-A097M (antibody, V domains shown)
VH: B1 VH with A97M
VL: B1 VL with C49G
notes: as for B2
B22: HC-Y111C (antibody, V domains shown)
VH: B1 VH with Y111C
VL: B1 VL with C49G
notes: as for B2
B23: HC-A097S (antibody, V domains shown)
VH: B1 VH with A97S
VL: B1 VL with C49G
notes: as for B2
B24: HC-I051E (antibody, V domains shown)
VH: B1 VH with I51E
VL: B1 VL with C49G
notes: as for B2
B25: HC-G099E (antibody, V domains shown)
VH: B1 VH with G99E
VL: B1 VL with C49G
notes: as for B2
B26: HC-G050S (antibody, V domains shown)
VH: B1 VH with G50S
VL: B1 VL with C49G
notes: as for B2
B27: HC-Y111T (antibody, V domains shown)
VH: B1 VH with Y111T
VL: B1 VL with C49G
notes: as for B2
B28: HC-W112L (antibody, V domains shown)
VH: B1 VH with W112L
VL: B1 VL with C49G
notes: as for B2
B29: HC-T053E (antibody, V domains shown)
VH: B1 VH with T53E
VL: B1 VL with C49G
notes: as for B2
B30: HC-T053D (antibody, V domains shown)
VH: B1 VH with T53D
VL: B1 VL with C49G
notes: as for B2
B31: HC-R098H (antibody, V domains shown)
VH: B1 VH with R98H
VL: B1 VL with C49G
notes: as for B2
B32: HC-G105D (antibody, V domains shown)
VH: B1 VH with G105D
VL: B1 VL with C49G
notes: as for B2
B33: LC-Q089E (antibody, V domains shown)
VH: B1 VH
VL: B1 VL with C49G, Q89E
notes: as for B1
B34: HC-A097T (antibody, V domains shown)
VH: B1 VH with A97T
VL: B1 VL with C49G
notes: as for B2
B35: HC-T033C (antibody, V domains shown)
VH: B1 VH with T33C
VL: B1 VL with C49G
notes: as for B2

Columns and labels:
Design in all cases: unit not given here
[1] = biological target: T1, human ROR2 (receptor tyrosine kinase-like orphan receptor 2) (human, UniProt Q01974 34-403, limits assumed); assay: affinity ELISA on human ROR2, pH 6.0
T1 construct: Antigen of the ELISA, SPR and pH titration assays; also called hROR2

[2] = biological target: T1, human ROR2 (receptor tyrosine …); assay: affinity ELISA on human ROR2, pH 7.4
[3] = biological target: T1, human ROR2 (receptor tyrosine …); assay: affinity ELISA on human ROR2, pH 7.4; remark: listed apart in the source
[4] = biological target: T1, human ROR2 (receptor tyrosine …); assay: affinity ELISA on human ROR2, pH 6.0; remark: listed apart in the source

T1 sequence (Q01974 34-403 limits assumed): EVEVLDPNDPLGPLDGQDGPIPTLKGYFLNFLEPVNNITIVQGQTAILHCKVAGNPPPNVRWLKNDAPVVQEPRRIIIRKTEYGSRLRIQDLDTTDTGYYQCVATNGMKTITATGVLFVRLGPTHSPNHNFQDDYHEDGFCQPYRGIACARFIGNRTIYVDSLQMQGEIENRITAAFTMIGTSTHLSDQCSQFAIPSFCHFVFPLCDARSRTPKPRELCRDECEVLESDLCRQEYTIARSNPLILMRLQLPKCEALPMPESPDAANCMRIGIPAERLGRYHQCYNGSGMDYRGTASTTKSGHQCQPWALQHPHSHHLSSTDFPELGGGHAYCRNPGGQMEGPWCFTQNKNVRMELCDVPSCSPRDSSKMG

Binder | Affinity ELISA, pH 6.0 [1] | Affinity ELISA, pH 7.4 [2] | Affinity ELISA, pH 7.4 [3] | Affinity ELISA, pH 6.0 [4]
B1 | 0.468 | 0.133 | – | –
B2 | – | – | 1.73 | 1.89
B3 | – | – | 0.433 | 0.911
B4 | – | – | 0.185 | 1.17
B5 | – | – | 1.41 | 1.46
B6 | 1.87 | 0.118 | – | –
B7 | – | – | 0.391 | 0.903
B8 | – | – | 0.276 | 0.799
B9 | – | – | 0.431 | 0.995
B10 | 0.66 | 0.268 | – | –
B11 | – | – | 0.34 | 0.87
B12 | 0.489 | 0.215 | – | –
B13 | – | – | 0.211 | 1.24
B14 | 1.1 | 0.536 | – | –
B15 | – | – | 0.51 | 1.47
B16 | 0.69 | 0.332 | – | –
B17 | – | – | 0.742 | 1.34
B18 | – | – | 0.655 | 0.794

Binder | Affinity ELISA, pH 6.0 [1] | Affinity ELISA, pH 7.4 [2] | Affinity ELISA, pH 7.4 [3] | Affinity ELISA, pH 6.0 [4]
B19 | 0.56 | 0.256 | – | –
B20 | – | – | 1.4 | 1.68
B21 | – | – | 1.7 | 1.98
B22 | – | – | 0.793 | 1.08
B23 | – | – | 1.69 | 1.67
B24 | – | – | 0.1 | 1.04
B25 | – | – | 0.421 | 0.616
B26 | – | – | 0.318 | 0.828
B27 | – | – | 1.4 | 1.86
B28 | – | – | 1.7 | 1.75
B29 | – | – | 0.157 | 0.54
B30 | – | – | 0.222 | 1.11
B31 | – | – | 0.353 | 0.928
B32 | – | – | 0.379 | 0.509
B33 | 0.438 | 0.251 | – | –
B34 | – | – | 1.69 | 1.83
B35 | – | – | 0.232 | 0.626
